According to patent publication US20060121045A1 (published 2006):
Numbering of substitutions follows the chain as printed.

B1: anti-PA 14B7 scFv (scFv)
scFv: DIQMTQTTSSLSASLGDRVTISCRASQDIRNYLNWYQQKPDGTVKLLIYYTSRLQSGVPSRFSGSGSGTDYSLTISNQEQEDIGTYFCQQGNTLPWTFGGGTKLEIKRGGGGSGGGGSGGGGSGGGGSEVQLQQSGPELVKPGASVKISCKDSGYAFSSSWMNWVKQRPGQGLEWIGRIYPGDGDTNYNGKFKGKATLTADKSSSTAYMQLSSLTSVDSAVYFCARSGLLRYAMDYWGQGTSVTVSS
B2: M18 scAb-PEG 20 kDa (scFv)
scFv: B1 scFv with I21V, L46F, S56P, S76N, Q78L, L94P, S158N, T186S, K193E, T197I
B3: M18 scAb-PEG 40 kDa (scFv)
scFv: B1 scFv with I21V, L46F, S56P, S76N, Q78L, L94P, S158N, T186S, K193E, T197I
B4: M18 scAb (scFv)
scFv: B1 scFv with I21V, L46F, S56P, S76N, Q78L, L94P, S158N, T186S, K193E, T197I

Tests used:
[1] = biological target: T1, anthrax protective antigen (PA) (Bacillus anthracis, UniProt P13423 30-764); test: SPR
[2] = biological target: T1, anthrax protective antigen (PA); test: SPR (Biacore 3000), PA down; antibody analyte
[3] = biological target: T1, anthrax protective antigen (PA); test: SPR (Biacore 3000), antibody down; PA analyte
[4] = biological target: T1, anthrax protective antigen (PA); test: not stated (presumably SPR)

T1 sequence (P13423 30-764 limits assumed): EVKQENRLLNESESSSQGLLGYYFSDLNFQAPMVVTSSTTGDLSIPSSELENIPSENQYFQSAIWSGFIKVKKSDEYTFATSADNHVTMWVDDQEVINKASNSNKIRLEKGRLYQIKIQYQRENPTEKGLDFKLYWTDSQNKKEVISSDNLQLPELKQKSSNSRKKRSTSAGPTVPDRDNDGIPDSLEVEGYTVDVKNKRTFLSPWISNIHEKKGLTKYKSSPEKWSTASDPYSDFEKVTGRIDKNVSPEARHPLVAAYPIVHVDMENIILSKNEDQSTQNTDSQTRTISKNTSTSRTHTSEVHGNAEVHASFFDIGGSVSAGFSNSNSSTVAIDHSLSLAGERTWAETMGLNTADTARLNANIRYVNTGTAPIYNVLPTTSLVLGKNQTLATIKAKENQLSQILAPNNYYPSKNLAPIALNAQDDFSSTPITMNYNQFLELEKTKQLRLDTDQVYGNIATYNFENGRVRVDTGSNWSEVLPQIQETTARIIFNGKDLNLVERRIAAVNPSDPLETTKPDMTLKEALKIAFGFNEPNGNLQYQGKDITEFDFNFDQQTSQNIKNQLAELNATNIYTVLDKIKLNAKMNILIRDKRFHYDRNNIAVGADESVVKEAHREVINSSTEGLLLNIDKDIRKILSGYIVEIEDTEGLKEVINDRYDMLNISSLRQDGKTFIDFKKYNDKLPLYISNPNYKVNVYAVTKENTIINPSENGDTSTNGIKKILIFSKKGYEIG

Binder	Kd [1] [nM]	koff [1] [s⁻¹]	kon [1] [M⁻¹ s⁻¹]	Kd [2] [nM]	kon [2] [M⁻¹ s⁻¹]	Kd [3] [nM]	kon [3] [M⁻¹ s⁻¹]	Kd [4] [nM]	fold improvement of KD over the whole antibody to PA [4] [fold]
B1	4.3	0.003	710000	–	–	–	–	–	–
B2	–	–	–	0.69	100000	0.025	780000	–	–
B3	–	–	–	2.6	27000	0.043	870000	–	–
B4	0.035	4.2e-05	1.2e+06	0.044	1.4e+06	0.095	930000	0.054	~5
